Experimental data reported in the RNAGym collection of RNA variant scans (doi:10.7554/elife.90254).

B1: OR4K15 (parent)
chain: GUUAACGGUCAUAGGCCAUGGAAACUAGGAGCACCAUUUCGCUGCCAGUGAAGAAAUGAACAAAGAAAAUCUGGGCCAGGCAGGCAUCAAAAGAAAUAGUCUUGCGCUCAACCAGAAAGUCUGUAAUCAUUUUAAGGGUA

Variants of: B1
Assay: self-cleavage, relative activity (ratio to wild type); higher = more cleavage; in vitro, sequencing; the parent is a self-cleaving ribozyme

| Variant | self-cleavage |
| --- | --- |
| U43C U100G | 1.75 |
| A24C A60G | 1.17 |
| U102A A140U | 1.14 |
| G15A U108C | 0 |
| G14A A110G | 0.13 |
| U72A A134U | 0.27 |
| U43A A94C | 1.01 |
| U87A A114U | 0.1 |
| U12C A90G | 0.97 |
| A89C U108C | 0.01 |
| G14U U102A | 0.36 |
| U3C A89G | 0.99 |
| U87C A111U | 0.07 |
| A5U A94G | 1.51 |
| U102C G123A | 2.17 |
| U43C A86C | 1.4 |
| U2A A24C | 0.96 |
| A30U A96G | 0.89 |
| A27U U120C | 0.85 |
| A64U A94U | 1.63 |
| C85A A140G | 1.84 |
| A60U A62G | 1.72 |
| U3A A47U | 1.18 |
| U38A G104A | 0 |

| Variant | self-cleavage |
| --- | --- |
| A52U A66G | 1.8 |
| A59U U127G | 1.12 |
| U57A A63U | 1.38 |
| A89U A111U | 0.13 |
| A27C | 1.21 |
| C61U C101U | 0.54 |
| G31U U120C | 1.21 |
| A27U A56G | 1.21 |
| G73A | 0.07 |
| U2G A111G | 0 |
| U37A U100C | 2.33 |
| A18U G74A | 0.22 |
| A69G A78U | 0.33 |
| A111U U122C | 0.08 |
| U38C G79A | 0.22 |
| G41A A54U | 1.03 |
| A92G U139C | 1.75 |
| A82U U132C | 0.18 |
| U122C A126G | 0.76 |
| G15C G73A | 0.17 |
| A13G A18U | 0.89 |
| A27U A64G | 1.58 |
| A13G A91U | 0.92 |
| A22G A54U | 1.08 |

| Variant | self-cleavage |
| --- | --- |
| A129G G137A | 0.54 |
| A55G U108C | 0.01 |
| A27U A134G | 1.3 |
| A69U A86G | 2.37 |
| A68G G106U | 0.02 |
| G1U A33U | 1.75 |
| U72A U132C | 0.23 |
| U37A U139C | 1.19 |
| U132A A135G | 0.87 |
| G29A A129G | 1.59 |
| A62U A111G | 0.02 |
| A67G A92G | 1.31 |
| A11G A36U | 1.12 |
| U3C A51U | 1.27 |
| A67G A117G | 1.66 |
| A24G A60G | 0.89 |
| A18U A22G | 1.12 |
| A56G A69G | 1.08 |
| U9A U108C | 0.03 |
| U19C A92U | 1.93 |
| U120C A135G | 1.03 |
| A23G G104A | 0.03 |
| U49A A68G | 0.95 |
| A36C A86G | 1.24 |

| Variant | self-cleavage |
| --- | --- |
| A55U G137A | 1.23 |
| A86C G106U | 0.01 |
| A23G A96G | 0.92 |
| A22G A90U | 2.02 |
| A95G U97C | 1.23 |
| U43A A63G | 2.21 |
| U72A A78G | 0.05 |
| A52G A86G | 1.41 |
| A64G A86U | 2.21 |
| A63G U97C | 2.55 |
| A98G A111G | 0.01 |
| A60G A111G | 0.03 |
| C107A A118U | 0 |
| U2C A69U | 1.15 |
| U49C U132C | 1.45 |
| U19C A111U | 0.07 |
| A36U A56U | 1.12 |
| U3C A118U | 1.94 |
| A18G A36G | 1.4 |
| U57A U97C | 1.78 |
| G53U A54U | 1.67 |
| U38C A82G | 0.57 |
| A27G U43C | 1.41 |
| U49A A126G | 0.99 |

| Variant | self-cleavage |
| --- | --- |
| A33G A68G | 1.04 |
| A23G U100A | 0.74 |
| A24G G123A | 1.48 |
| U87C A98U | 1.9 |
| A54U A90G | 0.85 |
| A68U A125C | 1.36 |
| U72A U133C | 0.29 |
| A86G A98U | 1.73 |
| A68G U97C | 1.3 |
| U19C U127C | 0.95 |
| A63G U102C | 1.43 |
| A47G G99U | 0.51 |
| A11C A114U | 0.09 |
| G31U U133C | 2.47 |
| U26C U87A | 1.6 |
| U9A A60G | 0.57 |
| A18U A36G | 1.65 |
| A89G C105U | 0.07 |
| A67G A110G | 0.11 |
| U2A U127C | 1.08 |
| A18U A140G | 1.49 |
| C35U A98U | 1.52 |
| A23G U37A | 1.24 |
| A13G A55U | 1.2 |

| Variant | self-cleavage |
| --- | --- |
| A98G U124A | 0.07 |
| A89G A129G | 1.06 |
| U49C A110G | 0.12 |
| C113U U131C | 0 |
| A30G U103C | 1.09 |
| A30G A36G | 1.44 |
| G15A A33G | 0.94 |
| A30G A52U | 1.62 |
| C85U A90C | 1.2 |
| A59U U124A | 0.51 |
| A33G A86G | 0.7 |
| A60U A134G | 1.84 |
| U38A G48A | 1.31 |
| A96G A118U | 0.79 |
| A33G A47U | 0.57 |
| A52U A55G | 1.07 |
| U43A U122C | 1.85 |
| U38C U120C | 1.06 |
| U37C G106A | 0.01 |
| G8A A27G | 1.84 |
| A13G A22G | 1.11 |
| A11G U43C | 0.92 |
| U2C A95U | 0.99 |
| U9C A62G | 1.49 |

| Variant | self-cleavage |
| --- | --- |
| U43C G48A | 1.32 |
| A33G A140G | 1.26 |
| U37C U130C | 0.97 |
| U3C A98C | 1.18 |
| U122A U130C | 0.8 |
| U2G A51G | 0.95 |
| A96U U132G | 1.55 |
| A92G G123A | 2.51 |
| A36G U87C | 2.04 |
| U49A C105U | 0.15 |
| A33G A96U | 1.14 |
| A51G A140U | 1.35 |
| G31A A47U | 0.83 |
| C16A U38C | 0.92 |
| C112G U120A | 0.01 |
| U2C A129U | 0.84 |
| A30G A118U | 0.62 |
| C25U U100C | 2.01 |
| A13U C121A | 1.92 |
| A47U G84A | 1.13 |
| U26C A30G | 1.25 |
| U2C A54G | 0.68 |
| C40U G44A | 2.32 |
